The record followed here is patent publication US20230383007A1 (BIOSION, published 2023).

The target in assay [1] is T1, cynomolgus TROP2-his protein (cynomolgus, UniProt P09758 27-272 (human entry), limits assumed).
T1 construct: also called Cyno TROP2-his; Cynomolgus monkey TROP2-his protein
T1 chain: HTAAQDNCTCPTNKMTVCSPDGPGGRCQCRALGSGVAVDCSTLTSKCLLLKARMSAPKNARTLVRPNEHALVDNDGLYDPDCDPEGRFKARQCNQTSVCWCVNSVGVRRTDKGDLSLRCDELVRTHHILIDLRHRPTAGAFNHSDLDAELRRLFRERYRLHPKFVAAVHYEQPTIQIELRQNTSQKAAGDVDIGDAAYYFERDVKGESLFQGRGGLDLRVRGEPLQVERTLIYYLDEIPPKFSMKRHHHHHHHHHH
As to the kind of experiment: indirect ELISA on cynomolgus TROP2; unit taken from the x axis (nM).

The target in assay [2] is T2, human TROP2-his protein (human, UniProt P09758 27-274).
T2 construct: also called biotin labeled human TROP2-his protein
T2 sequence: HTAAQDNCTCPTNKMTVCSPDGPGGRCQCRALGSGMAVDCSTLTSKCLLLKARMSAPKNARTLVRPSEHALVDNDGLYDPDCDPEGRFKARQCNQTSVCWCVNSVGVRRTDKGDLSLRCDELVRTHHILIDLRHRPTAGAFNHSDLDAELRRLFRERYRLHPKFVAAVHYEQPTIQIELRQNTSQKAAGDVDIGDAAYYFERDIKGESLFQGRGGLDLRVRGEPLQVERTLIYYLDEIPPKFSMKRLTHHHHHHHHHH
Kind of assay: indirect ELISA, plate coated with human TROP2-his; unit taken from the x axis (Con of mAb, ng/mL). Here is the method:
The single domain antibodies of the disclosure were tested in the indirect ELISA for their cross-reaction with cynomolgus TROP2 protein. Briefly, 96-well micro plates were coated with 100 μl 2 μg/ml human TROP2-his protein (prepared in-house with SEQ ID NO: 16) in carbonate/bicarbonate buffer (pH 9.6) overnight at 4° C. ELISA plates were washed once with wash buffer (PBS+0.05% v/v Tween-20, PBST) and then blocked with 200 μl/well blocking buffer (5% w/v non-fatty milk in PBST) for 2 hours at 37° C. Plates were washed 4 times and incubated with 100 μl/well serially diluted anti-TROP2 antibodies of the disclosure or controls (starting at 66.7 nM, 5-fold serial dilution in 2.5% w/v non-fatty milk in PBST) for 40 minutes at 37° C. ELISA plates were washed 4 times again and incubated with Peroxidase AffiniPure F(ab′)₂ Fragment Goat Anti-Human IgG, Fey fragment specific (Jackson Immuno Research, Cat #109-036-098, 1:5000 dilution in PBST buffer, 100 μl/well) for 40 minutes at 37° C. After a final wash, plates were incubated with 100 μl/well TMB (Innoreagents) at room temperature. The reaction was stopped 3-10 minutes later at room temperature with 50 μl/well 1M H₂SO₄, and the absorbance of each well was read on a microplate reader using dual wavelength mode with 450 nm for TMB and 630 nm as the reference wavelength. The OD (450-630) values were plotted against antibody concentration. Data was analyzed using Graphpad Prism software and EC₅₀ values were reported.

For assay [3], the target named is T2, human TROP2-his protein. As to the kind of experiment: SPR Biacore T200; antibody captured on anti-human IgG CM5 chip, TROP2-his as analyte in 2-fold dilutions from 160 nM; 1:1 Langmuir fit. From the text:
(§1) The purified anti-TROP2 mouse monoclonal antibodies (mAbs) were characterized for binding affinity and binding kinetics by Biacore T200 system (GE healthcare, Pittsburgh, PA, USA). Briefly, goat anti-human IgG (GE healthcare, Cat #BR100839, Human Antibody Capture Kit) was covalently linked to a CM5 chip (carboxy methyl dextran coated chip from GE healthcare #BR100530) via primary amines, using a standard amine coupling kit (GE healthcare, Pittsburgh, PA, USA) provided by Biacore. Un-reacted moieties on the chip (biosensor) surface were blocked with ethanolamine. The anti-TROP2 antibodies of the disclosure and the benchmark at the concentration of 2 μg/ml were respectively flowed onto the chip at a flow rate of 10 μL/min. Then, serially diluted human TROP2-his protein (prepared in-house with SEQ ID NO: 16), or cynomolgus TROP2-his protein (prepared in-house with SEQ ID NO: 19), 2-fold dilution in HBS-EP⁺ buffer (provided by Biacore) starting at 160 nM, were flowed onto the chip at a flow rate of 30 μL/min. The antigen-antibody association kinetics was followed for 2 minutes and the dissociation kinetics was followed for 10 minutes. The association and dissociation curves were fit to a 1:1 Langmuir binding model using BIAcore evaluation software.

The target in assay [4] is T1, cynomolgus TROP2-his protein. The description is as above.
From the text: as §1

B1: single domain antibody 01-9F (VHH)
VHH: QVQLVESGGGSVQAGGSLRLSCVVSGLPYERYCVAWFRQGPGKEREGVARILSDGTTSYSDSVKGRFTISKDNAKNTLYLQMNSLKSEDTATYYCAAEAFRPFTPSDGDCTTVLGIDYWGKGTPVTVSS
The molecule B1 had an EC50 in assay [1] of 0.107 nM. In assay [2], this molecule yielded an EC50 of 0.0208 µg/mL. In assay [3], this molecule came in with a Kd of 0.0262 nM, a koff of 8.11e-06 s⁻¹ and a kon of 309000 M⁻¹ s⁻¹. In assay [4], this molecule returned a Kd of 0.558 nM, a koff of 0.000161 s⁻¹ and a kon of 287000 M⁻¹ s⁻¹.

B2: sacituzumab (benchmark, an analog of sacituzumab, in house made) (antibody, human IgG1, kappa, V domains shown)
VH: SVQLQQSGSELKKPGASVKVSCKASGYTFTNYGMNWVKQAPGQGLKWMGWINTYTGEPTYTDDFKGRFAFSLDTSVSTAYLQISSLKADDTAVYFCARGGFGSSYWYFDVWGQGSLVTVSS
VL: DIQLTQSPSSLSASVGDRVSITCKASQDVSIAVAWYQQKPGKAPKLLIYSASYRYTGVPDRFSGSGSGTDFTLTISSLQPEDFAVYYCQQHYITPLTFGAGTKVEIKR
notes: also called BM; BM1
B2: the EC50 in assay [1] came to 0.161 nM. The EC50 in assay [2] came to 0.0374 µg/mL. Besides, in assay [3], the Kd is 0.409 nM, the off-rate constant (koff) came out at 0.000116 s⁻¹ and the association rate constant (kon) stood at 284000 M⁻¹ s⁻¹. Also, in assay [4], the Kd came to 0.874 nM, the koff was 0.000224 s⁻¹ and the kon was 257000 M⁻¹ s⁻¹.
